The supplement of paper PMC11908140

B1: library; numbered along this chain (parent)
chain: MRKPRAAVGSGHRKQAASQEGRQKHAKNNSQAKPSACDGLARQPEEVVLQASVSSYHLFRDVAEVTAFRGSLLSWYDQEKRDLPWRRRAEDEMDLDRRAYAVWVSEVMLQQTQVATVINYYTGWMQKWPTLQDLASASLEEVNQLWAGLGYYSRGRRLQEGARKVVEELGGHMPRTAETLQQLLPGVGRYTAGAIASIAFGQATGVVDGNVARVLCRVRAIGADPSSTLVSQQLWGLAQQLVDPARPGDFNQAAMELGATVCTPQRPLCSQCPVESLCRARQRVEQEQLLASGSLSGSPDVEECAPNTGQCHLCLPPSEPWDQTLGVVNFPRKASRKPPREESSATCVLEQPGALGAQILLVQRPNSGLLAGLWEFPSVTWEPSEQLQRKALLQELQRWAGPLPATHLRHLGEVVHTFSHIKLTYQVYGLALEGQTPVTTVPPGARWLTQEEFHTAAVSTAMKKVFRVYQGQQPGTCMGSKRSQVSSPCSRKKPRMGQQVLDNFFRSHISTDAHSLNSAAQ

Variants of: B1
Assay: 8OG:A repair function score (normalized; synonymous = 0, nonsense = -1) (normalized log-likelihood score); higher = more repair activity (WT-like)
Conditions: with 8OG:A DNA repair reporter (GFP) in HEK-293 MUTYH KO cells
Method in brief: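 Lentiviral MUTYH cDNA NNN codon-scan libraries were expressed in MUTYH knockout HEK-293 cells with 10 pg/ml doxycycline, and the cells received an 8OG:A GFP repair reporter together with mCherry. At 72 h, viable mCherry+ cells went into GFP+ (repair) or GFP− bins, three replicates per tile, before tile amplicons were sequenced. A repair function score was then built from per-tile Rosace fitness scores, anchored on the synonymous and nonsense distributions. Synonymous medians sat at 0 and nonsense at -1, and variants under 300 counts per million at the start were left out.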
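Also: cells sorted at 72 h after reporter transfection.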

8OG:A repair function score, by site and new letter:
Q286: F -0.00865; S -0.023; K -0.000545; M -0.0133; D -0.0961; V -0.0346; I -0.0426; W -7.92e-05; R 0.00446; Y -0.0193; T -0.00617; H -0.0639; L -0.0175; P -0.093; N 0.0116; A -0.00891; C -0.00905; G -0.0661; E -0.0273
S294: K -0.0502; P -0.0152; Y -0.0109; Q -0.0283; H -0.0171; V -0.0111; G -0.00188; L -0.0244; D -0.0514; N 0.0126; W -0.0117; I 0.00404; M -0.0115; F -0.0489; R -0.00624; A -0.012; C -0.00327; E 0.00208; T 0.00194
R283: T -0.308; W -0.115; V -0.0935; S -0.203; Q -0.0283; Y -0.0964
L295: A -0.00496; V 0.0106; Y -0.0185; Q -0.0618; W -0.0272; F -0.0139; N -0.00265; M -0.0314; D -0.0433; I 0.00398; C -0.0222; E -0.0096; H -0.0248; R -0.0249; S -0.0013; K -0.0388; P 0.0289; T -0.00105
E287: W -0.0668; F -0.0154; T -0.00299; L -0.0229; Q -0.114; V -0.04; I -0.038; A -0.017; D -0.0111; S 0.005; G -0.0256; K -0.0128; P -0.121; H -0.047; M 0.0384; Y -0.00218; R -0.0601; N -0.0363; C -0.037
D300: L -0.189; G -0.148; Y -0.121; T -0.109; F -0.255; K -0.325; C -0.0631; P -0.0407; E -0.0547; I -0.191; S -0.139; W -0.16; Q -0.112; M -0.0873; V -0.0916; H -0.0192; R -0.291; A -0.149; N -0.0764
P299: Q -0.00604; V -0.0192; Y -0.00692; M -0.0166; I -0.00528; F 0.00405; L -0.0164; W -0.0506; E -0.036; S -0.0568; H 0.0118; R -0.000753; T -0.0424; C -0.0402; A -0.0132; N -0.099; K -0.0515; D 0.0184; G -0.0369
A291: C -0.0481; H -0.0755; L -0.0339; Y 0.0195; F -0.0509; R -0.0282; N 0.0139; P -0.0656; W -0.0221; G -0.0909; S -0.000102; K 0.00353; E -0.125; D -0.119; Q 0.00288; M -0.0586; I -0.0181; T -0.0451; V -0.0187
S292: C -0.0199; T -0.0314; W -0.0286; D -0.0297; L -0.0154; Q -0.0703; G -0.00959; R -0.0254; P -0.0306; V -0.0158; N -0.0335; I 0.000296; E -0.0389; A -0.0285; K -0.0316; Y 0.00788; F -0.0271; M -0.0481; H -0.00367
S296: I -0.0485; D 0.0216; G -0.0331; V 0.0116; Y 0.0195; N -0.0281; R 0.0309; L -0.0062; H -0.0357; T -0.0451; F -0.00655; C -0.0117; E -0.0247; P -0.00535; Q -0.00136; M -0.0125; A -0.0202; W 0.0254; K -0.0357
V301: E -0.439; D -0.39; A -0.249; F -0.175; G -0.279; C -0.217
S298: A -0.000852; F -0.0178; H 0.0283; P 0.0228; W -0.00249; N -0.0213; L 0.0173; M -0.0331; R -0.0386; G 0.0202; K -0.0342; I 0.0307; C -0.0366; E -0.0588; Y -0.0154; T 0.00821; D -0.0341; V 0.00493; Q -0.0174
E285: N -0.0168; M -9.17e-05; P -0.129; V 0.00347; T -0.0287; G -0.0139; W 0.0108; A 0.00663; D -0.0239; Q -0.00364; R 0.00385; K -0.0741; S 0.0138; L -0.000221; H -0.0454; I -0.0117; F 0.000814; C -0.00692; Y -0.0542
G297: N -0.00835; K 0.0192; C 0.00942; M -0.00568; R -0.0667; I -0.0605; W -0.206; V 0.0126; L -0.000773; Q -0.0223; D -0.0132; F 0.016; T 0.0201; S -0.00596; P -0.0639; E -0.0194; H 0.00021; Y -0.0582; A -0.00898
G293: R -0.00692; D -0.124; A -0.0268; F -0.0692; L -0.0631; V -0.0545; S -0.0376; H -0.05; Q -0.00725; N -0.03; P -0.0254; E -0.0308; M -0.0432; C -0.0307; I -0.0531; K -0.0447; T -0.0505; Y -0.0734; W 0.000227
Q288: Y -0.0255; A 0.00699; N 0.0202; S -0.0113; H 0.00465; M -0.03; F -0.016; K -0.0373; G -0.0129; V -0.068; E -0.0177; I -0.0801; W -0.0268; D -0.0736; T 0.00195; R -0.00978; P -0.036; C -0.0156; L -0.0159
L289: W -0.0271; D -0.0394; I 0.00652; N -0.057; G -0.00218; V -0.0422; P -0.0119; A 0.00592; Q 0.015; R -0.0177; S -0.0139; H 0.0106; E -0.00394; Y -0.00792; F -0.00169; M -0.0277; C -0.0659; K -0.0314; T 0.0028
V284: H -0.12; A 0.00964; Y -0.0139; F -0.00936; T 0.0102; G -0.236; W -0.0406; R -0.149; M -0.00894; I -0.0683; N -0.0944; P -0.32; S -0.0426; D -0.0734; E -0.033; L -0.0493; K -0.0279; C -0.0207; Q -0.0561
L290: A -0.0163; I 0.0122; H -0.0116; D -0.0753; C -0.0194; N 0.00556; F -0.0363; Y -0.0918; R 0.0252; K 0.0241; T 0.0127; G -0.0171; Q -0.0401; S -0.022; E -0.0564; W -0.0672; P -0.0572; V -0.0591; M -0.0856
